Results: article PMC9584430, “ATP hydrolytic activity of purified Spf1p correlate with micellar lipid fluidity and is dependent on conserved residues in transmembrane helix M1” (PLoS ONE, 2022)

B1: Saccharomyces cerevisiae P5A ATPase Spf1p (enzyme, UniProt P39986 1-1215, looked up)
chain: MTKKSFVSSPIVRDSTLLVPKSLIAKPYVLPFFPLYATFAQLYFQQYDRYIKGPEWTFVYLGTLVSLNILVMLMPAWNVKIKAKFNYSTTKNVNEATHILIYTTPNNGSDGIVEIQRVTEAGSLQTFFQFQKKRFLWHENEQVFSSPKFLVDESPKIGDFQKCKGHSGDLTHLKRLYGENSFDIPIPTFMELFKEHAVAPLFVFQVFCVALWLLDEFWYYSLFNLFMIISMEAAAVFQRLTALKEFRTMGIKPYTINVFRNKKWVALQTNELLPMDLVSITRTAEESAIPCDLILLDGSAIVNEAMLSGESTPLLKESIKLRPSEDNLQLDGVDKIAVLHGGTKALQVTPPEHKSDIPPPPDGGALAIVTKTGFETSQGSLVRVMIYSAERVSVDNKEALMFILFLLIFAVIASWYVWVEGTKMGRIQSKLILDCILIITSVVPPELPMELTMAVNSSLAALAKFYVYCTEPFRIPFAGRIDVCCFDKTGTLTGEDLVFEGLAGISADSENIRHLYSAAEAPESTILVIGAAHALVKLEDGDIVGDPMEKATLKAVGWAVERKNSNYREGTGKLDIIRRFQFSSALKRSASIASHNDALFAAVKGAPETIRERLSDIPKNYDEIYKSFTRSGSRVLALASKSLPKMSQSKIDDLNRDDVESELTFNGFLIFHCPLKDDAIETIKMLNESSHRSIMITGDNPLTAVHVAKEVGIVFGETLILDRAGKSDDNQLLFRDVEETVSIPFDPSKDTFDHSKLFDRYDIAVTGYALNALEGHSQLRDLLRHTWVYARVSPSQKEFLLNTLKDMGYQTLMCGDGTNDVGALKQAHVGIALLNGTEEGLKKLGEQRRLEGMKMMYIKQTEFMARWNQPQPPVPEPIAHLFPPGPKNPHYLKALESKGTVITPEIRKAVEEANSKPVEVIKPNGLSEKKPADLASLLLNSAGDAQGDEAPALKLGDASCAAPFTSKLANVSAVTNIIRQGRCALVNTIQMYKILALNCLISAYSLSIIYMAGVKFGDGQATVSGLLLSVCFLSISRGKPLEKLSKQRPQSGIFNVYIMGSILSQFAVHIATLVYITTEIYKLEPREPQVDLEKEFAPSLLNTGIFIIQLVQQVSTFAVNYQGEPFRENIRSNKGMYYGLLGVTGLALASATEFLPELNEAMKFVPMTDDFKIKLTLTLLLDFFGSWGVEHFFKFFFMDDKPSDISVQQVKIASK
notes: Spf1p, P5A-type ATPase of the endoplasmic reticulum, Saccharomyces cerevisiae, full length; The abstract speaks of a purified 'functional tagged version'; removal of the tag is not mentioned; also called full length Spf1p; full-length expression construct (Spf1p); not shown: FLAG, C-terminal, kept; RGS10His, C-terminal, kept

Columns and labels:
Spf1p = molecular target: T1, Spf1p (Saccharomyces cerevisiae, UniProt P39986); test: ATPase assay, phosphate release (molybdate colorimetric); type: biochemical
T1 construct: gene SPF1; full length with C-terminal FLAG-RGS10His tag; expressed in spf1-deleted yeast (BY4741 background), purified, re-lipidated in mixed yeast polar lipid/detergent micelles; persistent dimer seen on SDS-PAGE
T1 sequence (P39986 1-1215): B1 chain
Excerpt: ATPase assay, phosphate release (molybdate colorimetric) on Spf1p | Vanadate sensitivity of Spf1p in mixed YPL/OG micelles

[1] = molecular target: the molecule itself; test: SDS-PAGE of the purified protein (band at twice the expected size); purified fractions run on SDS-PAGE gels, strongly denaturing conditions; bands of the full-length protein identified by mass spectrometry (S1 Fig)
[2] = substrate: Nc1ncnc2c1ncn2[C@@H]1O[C@H](COP(=O)(O)OP(=O)(O)OP(=O)(O)O)[C@@H](O)[C@H]1O; test: ATPase assay, phosphate release (molybdate colorimetric); type: biochemical, Saccharomyces cerevisiae; conditions: YPL/OG micelles (0.35% w/w OG); Mg2+; Michaelis-Menten fit
Excerpt: ATPase assay, phosphate release (molybdate colorimetric) on Spf1p | ATP affinity of Spf1p in YPL/OG micelles

Molecule | Ki (Spf1p) [µM] | binding result [1] | Km [2] [µM]
[O]=[V]([OH])([OH])[OH] [vanadate] | 10.3 ± 0.747 |  | 
B1 |  | binds | 133.2 ± 18.9
